# T1: Rat serum albumin (rat)
# T1 chain: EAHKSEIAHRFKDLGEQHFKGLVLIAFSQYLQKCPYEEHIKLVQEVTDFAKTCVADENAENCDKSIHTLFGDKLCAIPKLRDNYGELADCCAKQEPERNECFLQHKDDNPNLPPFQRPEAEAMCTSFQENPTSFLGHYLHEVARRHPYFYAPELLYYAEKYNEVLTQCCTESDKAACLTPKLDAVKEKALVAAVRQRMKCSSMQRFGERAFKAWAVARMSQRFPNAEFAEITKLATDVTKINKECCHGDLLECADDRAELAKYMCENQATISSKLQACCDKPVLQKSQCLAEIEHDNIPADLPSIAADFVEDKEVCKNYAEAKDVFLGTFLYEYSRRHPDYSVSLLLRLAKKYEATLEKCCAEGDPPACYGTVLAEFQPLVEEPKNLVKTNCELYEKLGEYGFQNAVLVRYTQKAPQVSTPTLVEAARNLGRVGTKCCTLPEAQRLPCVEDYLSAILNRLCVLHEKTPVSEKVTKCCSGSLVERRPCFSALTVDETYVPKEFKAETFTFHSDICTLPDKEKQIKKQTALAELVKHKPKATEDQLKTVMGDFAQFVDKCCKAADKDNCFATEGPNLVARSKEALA
# T2: Cynomolgus monkey serum albumin (cynomolgus monkey)
# T2 chain: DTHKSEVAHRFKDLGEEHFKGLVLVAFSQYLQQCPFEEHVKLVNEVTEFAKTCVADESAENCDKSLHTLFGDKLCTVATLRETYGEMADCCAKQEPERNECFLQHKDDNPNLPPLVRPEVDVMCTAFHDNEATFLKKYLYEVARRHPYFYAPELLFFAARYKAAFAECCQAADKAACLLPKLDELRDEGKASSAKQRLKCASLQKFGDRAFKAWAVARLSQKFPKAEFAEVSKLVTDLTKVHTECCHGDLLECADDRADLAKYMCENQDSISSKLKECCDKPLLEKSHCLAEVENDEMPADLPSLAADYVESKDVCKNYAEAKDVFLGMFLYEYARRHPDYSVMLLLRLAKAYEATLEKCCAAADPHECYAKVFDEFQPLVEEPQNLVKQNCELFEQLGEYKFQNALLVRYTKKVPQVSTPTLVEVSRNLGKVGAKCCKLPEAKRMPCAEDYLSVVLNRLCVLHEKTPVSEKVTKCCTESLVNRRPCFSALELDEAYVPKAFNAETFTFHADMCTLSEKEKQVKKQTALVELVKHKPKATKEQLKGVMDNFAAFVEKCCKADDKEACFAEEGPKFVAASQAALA
# Tests used:
# [1] = biological target: T3, IL-4R (UniProt P24394 26-232, limits assumed); experiment: ELISA on coated IL-4R
# T3 construct: also called second target
# Procedure: The plates were washed 3× times in 0.05% PBST (150 μL/well) and then blocked with Casein in 0.05% PBST (200 μL/well) for 2 hours at RT. The plates were washed 3× times in 0.05% PBST, and 100 μL of titrated test articles in 0.05% PBST were added to the wells of the plate (starting 100 nM, 1:3 dilutions, 11-point titration) and incubated at 4° C. for 1 hour. […] Plates were then washed again before addition of TMB substrate (100 μL/well) that was allowed to reach RT before addition to the plate. The HRP-TMB reaction was allowed to develop for approximately 10 minutes, then TMB stop buffer was added (100 μL/well) and the absorbance was measured at 450 nm on a plate reader with absorbance at 650 nm subtracted (Molecular Devices). The data were plotted and analyzed using GraphPad Prism analysis software.
# [2] = biological target: T1, Rat serum albumin; experiment: ELISA on coated recombinant albumin, pH 7.4, anti-human IgG1 HRP; apparent affinity
# [3] = biological target: Human serum albumin (human); experiment: as above
# [4] = biological target: T2, Cynomolgus monkey serum albumin; experiment: as above
# [5] = biological target: Murine serum albumin (mouse); experiment: as above
# [6] = biological target: T1, Rat serum albumin; experiment: ELISA, albumin coated, monomeric sdAb titrated
# [7] = biological target: Human serum albumin (human); experiment: ELISA, albumin coated, monomeric sdAb titrated
# [8] = biological target: T2, Cynomolgus monkey serum albumin; experiment: ELISA, albumin coated, monomeric sdAb titrated
# [9] = biological target: Murine serum albumin (mouse); experiment: ELISA, albumin coated, monomeric sdAb titrated
# Chain of Murine serum albumin (mouse) (chain, as listed by the source): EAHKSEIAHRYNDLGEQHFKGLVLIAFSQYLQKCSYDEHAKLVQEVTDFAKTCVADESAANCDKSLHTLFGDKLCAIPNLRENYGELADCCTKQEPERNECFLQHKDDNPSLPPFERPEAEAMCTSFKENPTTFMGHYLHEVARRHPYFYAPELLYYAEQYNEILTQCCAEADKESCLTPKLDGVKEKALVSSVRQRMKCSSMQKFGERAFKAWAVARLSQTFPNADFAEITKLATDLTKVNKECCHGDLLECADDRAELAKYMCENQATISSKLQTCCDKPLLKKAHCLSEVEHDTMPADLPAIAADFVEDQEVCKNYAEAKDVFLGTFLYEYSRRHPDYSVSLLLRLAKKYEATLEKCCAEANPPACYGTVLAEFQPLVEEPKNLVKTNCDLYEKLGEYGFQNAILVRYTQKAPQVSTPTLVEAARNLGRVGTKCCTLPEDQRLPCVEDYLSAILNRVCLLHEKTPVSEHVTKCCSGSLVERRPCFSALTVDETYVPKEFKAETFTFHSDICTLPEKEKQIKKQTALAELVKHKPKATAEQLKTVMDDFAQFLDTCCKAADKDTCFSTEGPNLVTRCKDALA
Binder,binding result [1],Kd [2],Kd [3],Kd [4],Kd [5],Kd [6],maximal binding [6],Kd [7],maximal binding [7],Kd [8],maximal binding [8],Kd [9],maximal binding [9]
"cx12584 (VHH, Homodimer; also called Fc Region-GS12-VHH) GGGGDKTHTCPPCPAPGGPSVFLFPPKPKDTLMISRTPEVTCVVVDVSHEDPEVKFNWYVDGVEVHNAKTKPREEQYNSTYRVVSVLTVLHQDWLNGKEYKCKVSNKALPAPIEKTISKAKGQPREPQVYTLPPSRDELTKNQVSLTCLVKGFYPSDIAVEWESNGQPENNYKTTPPVLDSDGSFFLYSKLTVDKSRWQQGNVFSCSVMHEALHNHYTQKSLSLSPGGGSGGGSGGGSEVQLVESGGGEVQPGGSLRLSCAASGFTFSTSGMVWVRQAPGKGLEWVSTISDDARITVYAESVKGRFTISRDNAKNTVYLQMNSLRAEDTAVYYCATYRAGSRIGSYEDYYRGQGTLVTVKP",no binding (tested: 100 nM (top of titration)),–,–,–,–,–,–,–,–,–,–,–,–
"cx12583 (VHH, Homodimer; also called Fc Region-GS6-VHH) GGGGDKTHTCPPCPAPGGPSVFLFPPKPKDTLMISRTPEVTCVVVDVSHEDPEVKFNWYVDGVEVHNAKTKPREEQYNSTYRVVSVLTVLHQDWLNGKEYKCKVSNKALPAPIEKTISKAKGQPREPQVYTLPPSRDELTKNQVSLTCLVKGFYPSDIAVEWESNGQPENNYKTTPPVLDSDGSFFLYSKLTVDKSRWQQGNVFSCSVMHEALHNHYTQKSLSLSPGSGGGSEVQLVESGGGEVQPGGSLRLSCAASGFTFSTSGMVWVRQAPGKGLEWVSTISDDARITVYAESVKGRFTISRDNAKNTVYLQMNSLRAEDTAVYYCATYRAGSRIGSYEDYYRGQGTLVTVKP",no binding (tested: 100 nM (top of titration)),–,–,–,–,–,–,–,–,–,–,–,–
"cx5009, hz4A01v51 VHH-hIgG1-xELL-NNT-Fc (VHH, also called Hz4A01v51-NNT-hFc; 4A01v51-NNT-hFc) VHH: EVQLVESGGGEVQPGGSLRLSCAASGFTFSTSGMVWVRQAPGKGLEWVSTISDDARITVYAESVKGRFTISRDNAKNTVYLQMNSLRAEDTAVYYCATYRAGSRIGSYEDYYRGQGTLVTVKP",–,~0.2 nM,~0.2 nM,~0.2 nM,~0.2 nM,< 0.3 nM,> 90%,< 0.3 nM,> 90%,< 0.3 nM,> 90%,< 0.3 nM,> 90%
